{
  "source": "paper PMC11212984",
  "molecular_target": "ERGU-1::GFP (C. elegans ERGU-1, Y87G2A.13, with GFP fused to its C-terminus) (C. elegans)",
  "test": "SDS-PAGE western blot",
  "note": "Values joined by “and” are separate entries in the source; they are usually repeats but may differ in a detail not shown here. Identical values can stand only once.",
  "data": [
    {"substance": "ERGU-1::GFP (C. elegans ERGU-1, Y87G2A.13, with GFP fused to its C-terminus) (natural protein)", "values": [
      {"measurement": "stoichiometry N", "value": "2 and 4"}
    ]}
  ]
}
